From US7267978, “Chimeric transcriptional regulatory element compositions and methods for increasing prostate-targeted gene expression” (The Regents of the University of California) come the findings set out here.

Data set [1] addresses Androgen receptor full length (fAR) (UniProt P10275). The data set is described as follows: footprint. The note with it: 60% protection at 14 nM; cooperative, within enhancer fragment.
Data set [2] concerns the target Androgen receptor DNA-binding domain (ARDBD, aa 549-650) (Homo sapiens) (UniProt P10275). The data set is described as follows: footprint. To be noted: 75% occupancy at 1.4 uM.
Data set [3] deals with T1, Androgen receptor DNA-binding domain (ARDBD, aa 549-650) (Homo sapiens, UniProt P10275 P10275:550-651). The data set is described as follows: affinity column; retained at 0.5 M KCl, eluted at 0.8 M KCl. The note with it: tags: N-terminal His6, C-terminal heart muscle kinase site; E. coli; chain copies: 2; label: biotin. On the procedure:
The *Escherichia coli* strain BL21(DE3) was transformed with pET11dHis_6ARDBD. 0.1 liter of cells was grown to an $A600$ of 0.6 and induced with 0.5 mM isopropyl-1-thio-β-D-galactopyranoside and 10 μM ZnCl_2 for 3 h. After harvesting, cells were resuspended in 5 ml of Buffer A (20 mM HEPES, pH 7.9, 20% glycerol, 10 μM ZnCl_2, 0.5 mM phenylmethylsulfonyl fluoride) containing 0.1 M KCl and lysed by sonication. The supernatant was incubated with 1.5 ml of Ni-NTA-agarose (Qiagen) resin in batch, rocked gently for 30 min at 4° C., and then loaded on to a small Bio-Rad Econo-column. After successively washing the resin with 15 ml of Buffer A containing 0.1 M KCl, and 15 ml of Buffer A containing 0.1 M KCl and 20 mM imidazole, ARDBD was eluted with Buffer A containing 0.1 M KCl and 150 mM imidazole. […]

Data set [4] deals with T1, Androgen receptor DNA-binding domain …. The experiment in a line: footprint; lower affinity than ARE III. To be noted: tags: N-terminal His6, C-terminal heart muscle kinase site; E. coli; chain copies: 2. On the procedure:
The binding reactions for DNase I footprinting were as described previously (Chi et al., 1995). Indicated amounts of recombinant AR DNA binding domain (ARDBD), FLAG-tagged AR, and crude nuclear extracts from f-LNCaP cells were incubated in 13 μl of buffer containing 12.5 mM HEPES, pH 7.9, 12.5% glycerol, 5 mM MgCl_2, 70 mM KCl, 0.2 mM EDTA, 60 mM mercaptoethanol, 0.5 mg/ml bovine serum albumin, and 200 ng of poly(dG-dC). After 45 min at 30° C., DNase I was added to the reactions. The cleavage reactions were terminated after 1 min by addition of 100 μl of stop buffer containing 400 mM sodium acetate, pH 5.2, 0.2% SDS, 10 mM EDTA, 50 μg/ml yeast tRNA, and 100 μg/ml proteinase K. The mixtures were incubated at 50° C. for 15 min, extracted with phenol/chloroform, and the products precipitated with ethanol. Precipitates were dissolved in formamide loading buffer and analyzed on 8% polyacrylamide/urea sequencing gels. The cleavage ladders were visualized by exposure to XAR-5 film or by PhosphorImager analysis.
A ^32P-labeled PCR™ fragment from −4309 to −4011 of the enhancer was subjected to DNase I footprinting studies. […] A weak footprint was also noticed below site V that had not been detected with ARDBD in earlier experiments.

A value given as a limit tells only on which side of the number the result lay.

T1 sequence (P10275 550-651, one chain of several): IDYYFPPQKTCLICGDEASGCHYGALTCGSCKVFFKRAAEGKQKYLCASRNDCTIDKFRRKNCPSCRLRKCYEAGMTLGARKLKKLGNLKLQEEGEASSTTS
Sequence of Androgen receptor full length (fAR) (P10275 whole entry, the tested form may be a part): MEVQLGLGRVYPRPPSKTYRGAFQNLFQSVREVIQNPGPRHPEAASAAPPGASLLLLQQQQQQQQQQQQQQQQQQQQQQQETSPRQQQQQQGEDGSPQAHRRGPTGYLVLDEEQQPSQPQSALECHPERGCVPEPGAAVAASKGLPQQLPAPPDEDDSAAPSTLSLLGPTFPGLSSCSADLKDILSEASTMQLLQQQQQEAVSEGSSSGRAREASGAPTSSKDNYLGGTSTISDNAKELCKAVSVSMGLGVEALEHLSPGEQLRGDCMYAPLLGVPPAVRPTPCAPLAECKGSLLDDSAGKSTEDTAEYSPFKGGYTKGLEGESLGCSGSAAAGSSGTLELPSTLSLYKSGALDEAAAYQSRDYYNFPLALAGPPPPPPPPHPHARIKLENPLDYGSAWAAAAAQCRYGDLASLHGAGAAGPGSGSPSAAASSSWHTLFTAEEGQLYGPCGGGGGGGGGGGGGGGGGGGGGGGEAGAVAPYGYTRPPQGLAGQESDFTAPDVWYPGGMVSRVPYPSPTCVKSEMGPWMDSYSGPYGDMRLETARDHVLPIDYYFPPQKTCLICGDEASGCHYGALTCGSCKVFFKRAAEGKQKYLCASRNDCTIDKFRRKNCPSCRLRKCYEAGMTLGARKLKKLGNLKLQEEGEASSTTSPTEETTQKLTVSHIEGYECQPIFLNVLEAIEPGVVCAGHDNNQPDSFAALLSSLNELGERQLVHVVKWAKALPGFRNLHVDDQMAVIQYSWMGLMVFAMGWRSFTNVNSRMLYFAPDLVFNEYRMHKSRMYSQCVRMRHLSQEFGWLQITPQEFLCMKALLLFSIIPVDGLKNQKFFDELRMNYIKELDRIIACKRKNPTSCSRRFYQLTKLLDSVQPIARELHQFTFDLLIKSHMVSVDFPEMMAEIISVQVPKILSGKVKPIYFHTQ
Sequence of Androgen receptor DNA-binding domain (ARDBD, aa 549-650) (Homo sapiens) (P10275 550-651): as the sequence (P10275 550-651, one chain of several) above

As for PSA enhancer ARE IV, the K half in data set [1] was less than 14 nM.

Regarding PSA enhancer ARE V, the K half was less than 1400 nM in data set [2] and less than 14 nM in data set [1].

B1: biotinylated ARE affinity oligonucleotide (dsDNA)
DNA 1: TTTCCTTGCAGTACAGCATGTTCTAGC
DNA 2: GCTAGAACATGCTGTACTGCAAGGAAA
Consider B1, for which, in data set [3], the binding result is listed as “binds”.

B2: PSA enhancer ARE VI (dsDNA)
DNA 1: GGATGCTGTGCACAC
DNA 2: GTGTGCACAGCATCC
Consider B2, for which the binding result in data set [4] was “binds”.
